# Patent publication US20200078439A1 (IMMATICS BIOTECHNOLOGIES, published 2020)
# Target: T1, HLA-A*0211 (purified recombinant HLA-A*0211 heavy chain with beta-2 microglobulin) (human)
# T1 construct: MHC class I molecule without peptide; folds with b2m in a peptide-dependent manner, and folded complex is measured by ELISA
# Test: ELISA-based refolding assay: recombinant HLA-A*0211 heavy chain + b2m + graded doses of peptide
row,binding result,Binder
1,no binding,LDRERAKN [BIR-12 (C-terminal octamer of BIR-004: LDRERAKN)]
2,binds,KLDRERAKN (also called nonamer BIR-11) [BIR-11 (C-terminal nonamer of BIR-004: KLDRERAKN)]
3,binds,LKLDRERAKN [BIR-13 (C-terminal decamer of BIR-004: LKLDRERAKN)]
